According to paper doi:10.1101/2022.03.31.486303 (bioRxiv, 2022):

Legend:
[1] = biological target: Cse4-NCP (Cse4 containing nucleosome core particle) (budding yeast) (UniProt P36012); test: cross-linking
Ame1/Okp1 complex = Ame1/Okp1 complex (budding yeast, UniProt P38313;P53298); test: pull-down
[2] = biological target: Mif2* (Mif2-6xHis-6xFlag wild type, dephosphorylated and in vitro phosphorylated by Cdc5) (budding yeast, UniProt P35201 1-549); test: pull-down
Dsn1/Nsl1 = biological target: T1, Dsn1/Nsl1 (budding yeast, UniProt P40568;Q12143); test: SEC
T1 sequence 1: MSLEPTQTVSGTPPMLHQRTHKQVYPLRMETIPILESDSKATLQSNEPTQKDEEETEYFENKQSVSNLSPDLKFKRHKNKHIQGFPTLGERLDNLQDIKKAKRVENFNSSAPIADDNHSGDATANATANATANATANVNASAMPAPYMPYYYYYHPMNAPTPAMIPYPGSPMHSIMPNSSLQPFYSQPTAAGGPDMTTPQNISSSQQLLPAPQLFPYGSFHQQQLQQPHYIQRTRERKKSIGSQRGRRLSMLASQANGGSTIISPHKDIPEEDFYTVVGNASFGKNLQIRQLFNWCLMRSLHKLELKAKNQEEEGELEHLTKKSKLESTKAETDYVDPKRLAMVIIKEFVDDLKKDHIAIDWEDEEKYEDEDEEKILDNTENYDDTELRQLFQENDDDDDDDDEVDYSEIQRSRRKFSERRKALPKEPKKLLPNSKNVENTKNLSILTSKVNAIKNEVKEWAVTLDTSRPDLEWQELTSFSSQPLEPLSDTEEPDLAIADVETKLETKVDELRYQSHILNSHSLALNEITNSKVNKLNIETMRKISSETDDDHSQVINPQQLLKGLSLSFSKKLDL
T1 sequence 2: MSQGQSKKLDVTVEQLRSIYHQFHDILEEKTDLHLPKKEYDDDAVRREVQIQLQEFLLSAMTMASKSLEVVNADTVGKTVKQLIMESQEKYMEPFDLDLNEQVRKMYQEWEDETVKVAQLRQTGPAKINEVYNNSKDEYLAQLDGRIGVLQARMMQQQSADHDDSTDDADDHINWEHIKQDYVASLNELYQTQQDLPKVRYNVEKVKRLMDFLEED

Spc24/25 complex = Spc24/25 complex (budding yeast, UniProt Q04477;P40014); test: cross-linking
Spc24/25 complex, sequence (Q04477 whole entry, chain 1 of 2): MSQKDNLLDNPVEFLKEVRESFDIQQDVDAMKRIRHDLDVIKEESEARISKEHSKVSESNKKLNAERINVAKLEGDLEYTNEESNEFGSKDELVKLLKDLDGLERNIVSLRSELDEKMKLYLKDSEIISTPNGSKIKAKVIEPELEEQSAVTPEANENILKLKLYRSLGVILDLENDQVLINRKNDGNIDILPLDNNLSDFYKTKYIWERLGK
Spc24/25 complex, sequence (P40014 whole entry, chain 2 of 2): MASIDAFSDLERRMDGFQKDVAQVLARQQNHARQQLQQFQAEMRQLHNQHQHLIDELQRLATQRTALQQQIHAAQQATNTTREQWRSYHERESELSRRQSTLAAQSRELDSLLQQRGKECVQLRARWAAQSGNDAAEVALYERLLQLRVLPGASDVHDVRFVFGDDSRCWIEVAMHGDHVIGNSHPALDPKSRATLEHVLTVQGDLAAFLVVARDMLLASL

Ame1/Okp1 complex, sequence (P38313 whole entry, chain 1 of 2): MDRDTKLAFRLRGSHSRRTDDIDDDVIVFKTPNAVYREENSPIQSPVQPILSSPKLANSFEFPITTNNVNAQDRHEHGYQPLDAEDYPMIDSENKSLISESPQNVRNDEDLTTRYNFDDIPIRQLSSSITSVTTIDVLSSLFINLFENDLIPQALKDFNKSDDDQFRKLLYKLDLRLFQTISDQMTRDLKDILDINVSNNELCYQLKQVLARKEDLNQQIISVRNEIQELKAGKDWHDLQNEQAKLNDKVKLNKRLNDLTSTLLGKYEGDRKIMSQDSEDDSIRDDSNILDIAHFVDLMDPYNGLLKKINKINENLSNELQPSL
Ame1/Okp1 complex, sequence (P53298 whole entry, chain 2 of 2): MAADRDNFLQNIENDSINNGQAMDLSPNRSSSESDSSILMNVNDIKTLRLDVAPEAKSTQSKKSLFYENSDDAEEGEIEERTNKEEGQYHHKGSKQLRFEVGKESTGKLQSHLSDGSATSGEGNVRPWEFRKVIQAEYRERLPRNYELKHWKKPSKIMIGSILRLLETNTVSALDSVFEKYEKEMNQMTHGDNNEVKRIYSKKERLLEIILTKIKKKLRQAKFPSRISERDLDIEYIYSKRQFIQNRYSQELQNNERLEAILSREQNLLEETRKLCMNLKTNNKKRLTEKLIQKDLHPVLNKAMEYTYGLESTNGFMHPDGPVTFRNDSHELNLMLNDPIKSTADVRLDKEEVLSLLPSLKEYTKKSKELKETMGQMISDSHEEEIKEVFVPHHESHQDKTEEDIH

Molecule: Mif2* (Mif2-6xHis-6xFlag wild type, dephosphorylated and in vitro phosphorylated by Cdc5) (from UniProt P35201 1-549) (natural protein)
- fold decrease of KD with MTW1c(Dsn1^S240D,S250D) against wild-type MTW1c [1]: 20 fold

B1: Mif2^Δ200-230 mutant, in vitro phosphorylated by Cdc5 (natural protein)
chain: MDYMKLGLKSRKTGIDVKQDIPKDEYSMENIDDFFKDDETSLISMRRKSRRKSSLFLPSTLNGDTKNVLPPFLQSYKSQDDEVVQSPSGKGDGSRRSSLLSHQSNFLSPANDFEPIEEEPEQEENDIRGNDFATPITQKLSKPTYKRKYSTRYSLDTSESPSVRLTPDRITNKNVYSDVPDLVADEDDDDRVNTSLNTSDSGSDSASDSDGDNTYQEVEEEAEVNTNDNEDDYIRRQASDVVRTDSIIDRNGLRKSTRVKVAPLQYWRNEKIVYKRKSNKPVLDIDKIVTYDESEDEEEILAAQRRKKQKKKPTPTRPYNYVPTGRPRGRPKKDPNAKENLIPEDPNEDIIERIESGGIENGEWLKHGILEANVKISDTKEETKDEIIAFAPNLSQTEQVKDTKDENFALEIMFDKHKEYFASGILKLPAISGQKKLSNSFRTYITFHVIQGIVEVTVCKNKFLSVKGSTFQIPAFNEYAIANRGNDEAKMFFVQVTVSEDANDDNDKELDSTFDTFG
- binding result (Ame1/Okp1 complex): binds

B2: Mtw1/Nnf1 (complex)
chain 1: MSAPTMRSTSILTEHLGYPPISLVDDIINAVNEIMYKCTAAMEKYLLSKSKIGEEDYGEEIKSGVAKLESLLENSVDKNFDKLELYVLRNVLRIPEEYLDANVFRLENQKDLVIVDENELKKSEEKLREKVNDVELAFKKNEMLLKRVTKVKRLLFTIRGFKQKLNELLKCKDDVQLQKILESLKPIDDTMTLLTDSLRKLYVDSESTSSTEEVEALLQRLKTNGKQNNKDFRTRYIDIRTNNVLRKLGLLGDKEDEKQSAKPDARTQAGDIVSIDIEEPQLDLLDDVL
chain 2: MVNSHGIRYIRLKQVFNRALDQSISKLQSWDKVSSCFPQYVNSKQGAINVANCQRQLTEFWTELCQREFKEIMEERNVEQKLNELDELILEAKERYTDRDQDEVNKGPAIDELSSKELVECHLYSQRMHAIHEIDERLAKVNEMNDQLAQELKDLETQVEVEKNEIGKMYDEYLGSHTDQPANVLLVQSLNDMVLELKENY
- binding result [2]: binds
- binding result (Ame1/Okp1 complex): binds
- binding result (Dsn1/Nsl1): binds

Molecule: NKDPNEVRSFLQDLSQVLARKSQGN [Cnn1^60-84 peptide]
- Kd (Spc24/25 complex): 2600 nM
